Test results published in US20170355774A1 (Regeneron, published 2017).
Numbering of substitutions follows the chain as printed. In names and notes the source's numbering stands.

T1: human GITR (amino acids M1-V241, NCBI Accession #NP_004186.1) expressed on cells (human, UniProt Q9Y5U5 26-241)
T1 construct: also called hGITR; hGITR/HEK293-D9
T1 sequence: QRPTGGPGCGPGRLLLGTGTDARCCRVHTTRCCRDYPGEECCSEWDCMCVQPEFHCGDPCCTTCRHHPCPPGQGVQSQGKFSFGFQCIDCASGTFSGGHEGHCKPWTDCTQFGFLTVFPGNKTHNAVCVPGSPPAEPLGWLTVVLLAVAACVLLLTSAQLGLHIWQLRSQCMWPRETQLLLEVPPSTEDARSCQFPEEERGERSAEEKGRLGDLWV

T2: hGITR.mmh (human)
T2 construct: soluble monomeric construct; also called human (h) GITR.mmh; monomeric human GITR
T2 chain: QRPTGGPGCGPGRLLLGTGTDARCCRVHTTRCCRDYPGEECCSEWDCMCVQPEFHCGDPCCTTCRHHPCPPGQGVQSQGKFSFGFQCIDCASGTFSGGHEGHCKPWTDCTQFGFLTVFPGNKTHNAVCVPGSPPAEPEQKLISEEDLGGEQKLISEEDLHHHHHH

T3: hGITR.mFc (human)
T3 construct: soluble dimeric construct with mouse Fc; also called dimeric human GITR
T3 chain: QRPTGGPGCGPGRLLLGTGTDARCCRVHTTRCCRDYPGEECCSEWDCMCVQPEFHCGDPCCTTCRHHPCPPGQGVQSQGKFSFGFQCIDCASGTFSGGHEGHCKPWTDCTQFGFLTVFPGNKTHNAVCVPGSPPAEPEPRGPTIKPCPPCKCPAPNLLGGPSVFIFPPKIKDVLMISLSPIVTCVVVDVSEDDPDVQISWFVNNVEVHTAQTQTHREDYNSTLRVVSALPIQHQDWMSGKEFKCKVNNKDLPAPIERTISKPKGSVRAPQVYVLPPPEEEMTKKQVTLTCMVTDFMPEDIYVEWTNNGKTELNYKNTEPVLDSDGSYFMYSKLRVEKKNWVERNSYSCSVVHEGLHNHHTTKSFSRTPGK

T4: mfGITR.mmh (Macaca fasicularis)
T4 construct: soluble monomeric construct; also called Macaca fasicularis (mf) GITR.mmh; cynomolgus GITR protein
T4 chain: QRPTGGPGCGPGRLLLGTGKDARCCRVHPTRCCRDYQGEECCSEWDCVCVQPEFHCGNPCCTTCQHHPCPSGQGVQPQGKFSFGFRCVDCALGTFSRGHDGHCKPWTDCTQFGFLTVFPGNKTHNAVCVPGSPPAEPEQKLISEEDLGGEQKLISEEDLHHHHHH

B1: H4H14521P (antibody, human IgG4, V domains shown)
VH: EVQLVESGGGLVQPGGSLRLSCAASGFTFRVYEMNWVRQAPGKGLEWISYIGSSGFTIYYADSVKGRFTISRDNAKNSLFLQLNSLRAEDTAVYYCARGWNDGVPNYLGMDVWGQGTTVTVSS
VL: DIQMTQSPSSLSASVGDRVTITCQASQDINKYLNWYQQKPGKAPKLLIYDASNLETGVPSRFSGSGSGTDFTFTISSLQPEDIARYHCQQYDKIPLTFGGGTKVEIK
notes: human IgG4 (H4H)
B2: H1H14520P (antibody, human IgG1, V domains shown)
VH: QVQLVESGGGVVQPGRSLRLSCAASGFTFSSFGMHWVRQAPGKGLEWVAVISYDGRNRYYADSVKGRFTISRDNSKNTLYLQMNSLSAEDTAMFYCAKDGFGNSFDYWGQGTLVTVSS
VL: DVVMTQSPLSLPVTLGQPASISCRSSQSLLYSDGNTYLTWFQQRPGQSPRRLIYKVSNRDSGVPDRFSGSGSGTDFTLTISRVEAEDVGIYYCMQGTHWPWTFGQGTKVEIK
notes: human IgG1 (H1H)
B3: H4H14476P (antibody, human IgG4, V domains shown)
VH: QVQLVESGGGVVQPGRSLRLSCAASGFTFSNYGIHWVRQPPGQGLEWVAVIWYAGSNKFYADSVKGRFTISRDNSKNSAYLQMNSLRAEDTAVYYCARAPLGYYYYGMDVWGQGTTVTVSS
VL: DIQMTQSPSSLSASVGDRVTITCRASQGIRNDLGWYQQKPGKAPKRLIYDASSLESGVPSRFSGSGSGTEFTLTISSLQPEDFATYYCLQHNSYPWTFGQGTKVEIK
notes: human IgG4 (H4H)
B4: H1H14486P (antibody, human IgG1, V domains shown)
VH: QVQLVESGGGVVQPGRSLRLSCAASGFTFSNYGMHWVRQAPGKGLEWVAVIWYPGSNKFYTDSVEGRFTISRDNSKNTVYLQMDSLRAEDTAVYYCARGGALGVDYYYGMDVWGQGTTVTVSS
VL: B3 VL with D1A, I21L, K45N, R46F, D50S, E55Q, E70D, H91N, N92Y, S93N
notes: human IgG1 (H1H)
B5: H1H14493P (antibody, human IgG1, V domains shown)
VH: QVQLVESGGGVVQPGRSLRLSCAASGFNFRSYGMHWVRQAPGKGLEWVAVIWYDGSNKYYADSVKGRFTISRDSSRDTLFLQMNSLRAGDTAVYYCARGGMLGRDYYYGMDVWGQGTTVTVSS
VL: B3 VL with D50A, E55Q, W96N, V104L
notes: human IgG1 (H1H)

Columns and labels:
[1] = biological target: T1, human GITR (amino acids M1-V241, NCBI …); test: ECL cell binding, hGITR/HEK293-D9
Experimental: Nonspecific binding sites were blocked with 2% BSA (w/v)+PBS for 1 h at room temperature (RT). Next, serial dilutions of anti-GITR antibodies, ranging from 1.7 pM to 100 nM, were added to cells for 1 h at RT. Plates were then washed to remove unbound antibodies (AquaMax2000 plate washer, MSD Analytical Technologies) and plate-bound antibodies were detected with a SULFO-TAG™ conjugated anti-human kappa light chain IgG antibody (Jackson Immunoresearch) for 1 h at RT.
Following washes, luminescent signals were recorded with a SECTOR Imager 6000 (MSD) instrument. Direct binding signals (relative light units, RLU) were analyzed as a function of the antibody concentration and data were fitted with a sigmoidal (four-parameter logistic) dose-response model using GraphPad Prism™ software. […] The signal detected with 100 nM antibody binding to the hGITR expressing cells versus parental cells was recorded as an indication of intensity and specificity of GITR binding.

[2] = biological target: T1, human GITR (amino acids M1-V241, NCBI …); test: cell-based or functional assay
[3] = biological target: T1, human GITR (amino acids M1-V241, NCBI …); test: cell-based or functional assay; remark: listed apart in the source
[4] = biological target: T1, human GITR (amino acids M1-V241, NCBI …); test: cell-based or functional assay; remark: listed apart in the source
[5] = biological target: T2, hGITR.mmh; test: SPR 37C, mAb capture
Experimental: (§1) (Table 3). […] GITR proteins were injected over the sensor surface at a flow rate of 30 μL/minute. All Biacore binding studies were performed in a buffer composed of 0.01M HEPES pH 7.4, 0.15M NaCl, 3 mM EDTA, 0.05% v/v Surfactant P20 (HBS-ET running buffer). Antibody-reagent association was monitored for 4 minutes while dissociation in HBS-ET running buffer (10 mM HEPES, 150 mM NaCl, 3 mM EDTA, 0.05% (v/v) Surfactant P20, pH 7.4) was monitored for 10 minutes. Kinetic association (kₐ) and dissociation (kd) rate constants were determined by fitting the real-time sensorgrams to a 1:1 binding model using Scrubber 2.0c curve fitting software. Binding dissociation equilibrium constants (KD) and dissociative half-lives (t ½) were calculated from the kinetic rate constants as: KD [M]=kd/kₐ; and t_{1/2}(min)=(ln 2/(60*kd). Results are summarized in Table 3.

[6] = biological target: T3, hGITR.mFc; test: SPR 37C, mAb capture
Experimental: as §1

[7] = biological target: T4, mfGITR.mmh; test: SPR 37C, mAb capture
Experimental: as §1

[8] = biological target: T1, human GITR (amino acids M1-V241, NCBI …); test: cell-based or functional assay; remark: listed apart in the source

Binder	Average Signal (RLU) at 100 nM [1]	EC50 [1]	fold activation, T-cell proliferation, 22 nM, non-anchored, donor 1 [2]	fold activation, T-cell proliferation, 22 nM, non-anchored, donor 2 [2]	Kd [5]	koff [5]	kon [5]	t½ [5]	Kd [6]	koff [6]	kon [6]	t½ [6]	Kd [7]	koff [7]	kon [7]	t½ [7]	% Activation, NF-kB-Luc, non-anchored [8]	% Blocking, NF-kB-Luc, non-anchored [8]	EC50, hGITR activation, NF-kB-Luc, non-anchored [8]	IC50, blocking of hGITRL stimulation, NF-kB-Luc, non-anchored [8]	other results
B1	10100 RLU	0.43 nM	0.5 fold	1.2 fold	22.7 nM	0.00784 s⁻¹	345000 M⁻¹ s⁻¹	1.5 min	0.389 nM	0.000479 s⁻¹	1.23e+06 M⁻¹ s⁻¹	24.1 min	20.1 nM	0.00334 s⁻¹	166000 M⁻¹ s⁻¹	3.5 min	50%	60%	0.4 nM	3.8 nM	fold activation, T-cell proliferation, 22 nM, non-anchored, donor 3 [2]: 0.8 fold; fold activation, T-cell proliferation, 22 nM, non-anchored, donor 4 [2]: 1 fold; fold activation, T-cell proliferation, 22 nM, non-anchored, mean [2]: 0.9 fold; fold activation, T-cell proliferation, plate-bound Ab 10.6 nM, donor 1 [3]: 1 fold; fold activation, T-cell proliferation, plate-bound Ab 10.6 nM, donor 2 [3]: 4 fold; fold activation, T-cell proliferation, plate-bound Ab 10.6 nM, donor 3 [3]: 4 fold; fold activation, T-cell proliferation, plate-bound Ab 10.6 nM, donor 4 [3]: 5 fold; fold activation, T-cell proliferation, plate-bound Ab 10.6 nM, donor 5 [3]: 4 fold; fold activation, T-cell proliferation, plate-bound Ab 10.6 nM, donor 6 [3]: 12 fold; fold activation, T-cell proliferation, plate-bound Ab 10.6 nM, donor 7 [3]: 3 fold; fold activation, T-cell proliferation, plate-bound Ab 10.6 nM, donor 8 [3]: 2 fold; fold activation, T-cell proliferation, plate-bound Ab 10.6 nM, mean [3]: 4 fold; fold activation, T-cell proliferation, 33 nM, FcgR anchored, donor 1 [4]: 1.5 fold; fold activation, T-cell proliferation, 33 nM, FcgR anchored, donor 2 [4]: 1.1 fold; fold activation, T-cell proliferation, 33 nM, FcgR anchored, donor 3 [4]: 1.1 fold; fold activation, T-cell proliferation, 33 nM, FcgR anchored, donor 4 [4]: 1.7 fold; fold activation, T-cell proliferation, 33 nM, FcgR anchored, donor 5 [4]: 0.9 fold; fold activation, T-cell proliferation, 33 nM, FcgR anchored, mean [4]: 1.2 fold
B2	6450 RLU	0.24 nM	–	–	63 nM	0.0167 s⁻¹	266000 M⁻¹ s⁻¹	0.7 min	0.537 nM	0.000583 s⁻¹	1.09e+06 M⁻¹ s⁻¹	19.8 min	85.9 nM	0.0171 s⁻¹	199000 M⁻¹ s⁻¹	0.7 min	10%	80%	1.1 nM	0.9 nM	–
B3	8120 RLU	0.57 nM	0.7 fold	0.9 fold	31.4 nM	0.0123 s⁻¹	392000 M⁻¹ s⁻¹	0.9 min	0.297 nM	0.000269 s⁻¹	906000 M⁻¹ s⁻¹	42.9 min	55.8 nM	0.0107 s⁻¹	191000 M⁻¹ s⁻¹	1.1 min	10%	90%	1 nM	2.6 nM	fold activation, T-cell proliferation, 22 nM, non-anchored, donor 3 [2]: 0.9 fold; fold activation, T-cell proliferation, 22 nM, non-anchored, donor 4 [2]: 0.8 fold; fold activation, T-cell proliferation, 22 nM, non-anchored, mean [2]: 0.8 fold; fold activation, T-cell proliferation, 33 nM, FcgR anchored, donor 1 [4]: 0.6 fold; fold activation, T-cell proliferation, 33 nM, FcgR anchored, donor 2 [4]: 0.2 fold; fold activation, T-cell proliferation, 33 nM, FcgR anchored, donor 3 [4]: 0.8 fold; fold activation, T-cell proliferation, 33 nM, FcgR anchored, donor 4 [4]: 0.8 fold; fold activation, T-cell proliferation, 33 nM, FcgR anchored, donor 5 [4]: 0.1 fold; fold activation, T-cell proliferation, 33 nM, FcgR anchored, mean [4]: 0.5 fold
B4	5830 RLU	0.43 nM	–	–	2.79 nM	0.00123 s⁻¹	439000 M⁻¹ s⁻¹	9.4 min	0.159 nM	0.000153 s⁻¹	965000 M⁻¹ s⁻¹	75.5 min	122 nM	0.0166 s⁻¹	137000 M⁻¹ s⁻¹	0.7 min	30%	50%	1.2 nM	1.1 nM	–
B5	7220 RLU	0.3 nM	–	–	13.4 nM	0.0025 s⁻¹	186000 M⁻¹ s⁻¹	4.6 min	0.365 nM	0.000191 s⁻¹	524000 M⁻¹ s⁻¹	60.4 min	1400 nM	0.014 s⁻¹	10000 M⁻¹ s⁻¹	0.8 min	25%	90%	1.2 nM	0.6 nM	–
